The source of these data is US7033999B2, “Nitrosated and nitrosylated heme proteins” (Brigham and Women's Hospital, priority 1991, dated 2006).

Assay [1] deals with endothelium-denuded rabbit aortic strips. The assay can be described thus: Vessel relaxation bioassay. The class given is cell-based. To be noted: for % Relaxation: 150 nM, contraction with 1 μM epinephrine, mean ±S.D., n=4. As to the method: New Zealand White female rabbits weighing 3–4 kg were anesthetized with 30 mg/kg IV sodium pentobarbital. Descending thoracic aortae were isolated and placed immediately in a cold physiologic salt solution (Kreb's) (mM): NaCl, 118; CKl, 4.7; CaCl2, 2.5; MgSO4, 1.2; KH2PO4, 1.2; NaHCO3, 12.5; and D-glucose, 11.0. The vessels were cleaned of adherent connective tissue, and the endothelium removed by gentle rubbing with a cotton tipped applicator inserted into the lumen, after which the vessel was cut into 5 mm rings. The rings were mounted on stirrups and connected to transducers (model FT03C Grass Instruments, Quincy, Mass.) by which changes in isometric tension were recorded.
Samples were added to a standard bioassay in which vessel rings were suspended in glass chambers containing seven mil of oxygenated Kreb's buffer, in a standard bioassay (Cook et al., Am. J. Physiol. 28:H804 (1989), herein incorporated by reference). Sustained contractions, to 2 gm tension, were induced with 1 μM epinephrine, after which the effects of t-PA and S—NO-t-PA were tested. In certain experiments the guanylate cyclase inhibitor, methylene blue, was preincubated with vessel rings for 15 minutes prior to initiation of contractions.
The vasodilatory actions of S-nitroso-BSA were examined in a standard bioassay containing endothelium-denuded rabbit aortic strips in Kreb's buffer, pH 7.5, at 37°, as described in Example 6.
In vessel experiments, relaxations to S—NO-BSA are expressed as-percent of tone induced by 1.0 μM norepinephrine.

For assay [2], the target named is T1, fibrinogen (Homo sapiens, UniProt P02671+P02675+P02679).
T1 construct: purchased Enzyme Research Laboratories, South Bend, Ind
T1 sequence (P02671 20-629 limits assumed): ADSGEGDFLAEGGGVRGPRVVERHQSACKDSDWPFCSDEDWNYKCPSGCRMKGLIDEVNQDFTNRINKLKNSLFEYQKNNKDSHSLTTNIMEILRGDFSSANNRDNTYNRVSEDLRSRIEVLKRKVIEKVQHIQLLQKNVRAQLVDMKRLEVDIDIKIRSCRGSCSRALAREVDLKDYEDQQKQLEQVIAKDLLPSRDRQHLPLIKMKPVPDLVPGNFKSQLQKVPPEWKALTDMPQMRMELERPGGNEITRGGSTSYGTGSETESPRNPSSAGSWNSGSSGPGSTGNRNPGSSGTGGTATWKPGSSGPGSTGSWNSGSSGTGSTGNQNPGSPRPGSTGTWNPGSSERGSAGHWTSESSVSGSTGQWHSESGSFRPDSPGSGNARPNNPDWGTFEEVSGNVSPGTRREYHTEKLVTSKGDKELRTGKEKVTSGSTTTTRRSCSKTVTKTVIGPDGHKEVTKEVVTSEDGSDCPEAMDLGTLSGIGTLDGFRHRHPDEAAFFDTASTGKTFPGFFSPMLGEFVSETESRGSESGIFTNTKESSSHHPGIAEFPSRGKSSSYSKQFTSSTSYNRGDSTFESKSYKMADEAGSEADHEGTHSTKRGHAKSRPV
T1 sequence (P02675 31-491): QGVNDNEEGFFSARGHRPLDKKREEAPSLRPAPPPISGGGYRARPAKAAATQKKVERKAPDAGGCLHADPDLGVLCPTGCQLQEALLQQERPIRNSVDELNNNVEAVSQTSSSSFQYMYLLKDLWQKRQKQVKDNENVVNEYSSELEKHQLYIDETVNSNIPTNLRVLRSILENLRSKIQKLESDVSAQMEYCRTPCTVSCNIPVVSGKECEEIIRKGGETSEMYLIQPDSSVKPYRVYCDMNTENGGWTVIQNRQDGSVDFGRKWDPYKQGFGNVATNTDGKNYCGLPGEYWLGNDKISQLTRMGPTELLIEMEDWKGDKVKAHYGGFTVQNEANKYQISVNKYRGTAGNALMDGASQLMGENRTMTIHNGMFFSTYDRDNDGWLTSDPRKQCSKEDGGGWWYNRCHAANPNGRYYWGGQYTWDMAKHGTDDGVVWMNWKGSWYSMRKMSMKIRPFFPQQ
T1 sequence (P02679 27-433 limits assumed): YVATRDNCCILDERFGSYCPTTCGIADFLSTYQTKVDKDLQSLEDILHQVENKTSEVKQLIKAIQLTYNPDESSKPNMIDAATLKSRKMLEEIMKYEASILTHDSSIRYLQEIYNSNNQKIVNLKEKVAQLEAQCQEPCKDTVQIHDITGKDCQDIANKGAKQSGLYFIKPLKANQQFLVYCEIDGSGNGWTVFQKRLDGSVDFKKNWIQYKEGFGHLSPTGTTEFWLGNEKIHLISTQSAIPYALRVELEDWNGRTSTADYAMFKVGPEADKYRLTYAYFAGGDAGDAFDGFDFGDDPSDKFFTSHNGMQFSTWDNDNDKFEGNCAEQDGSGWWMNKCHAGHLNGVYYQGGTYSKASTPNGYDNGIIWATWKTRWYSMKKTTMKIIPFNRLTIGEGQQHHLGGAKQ
The assay is described as follows: Binding of t-PA and S—NO-t-PA to fibrinogen-coated wells (ELISA). On the procedure:
The binding of t-PA and S——NO-t-PA to fibrinogen was measured using polystyrene microliter wells (flat-bottom, high binding 96-well EIA plates, cat. #3590, Costar, Cambridge, Mass.). Wells were coated with fibrinogen (0.08 ug/ul) and the remaining binding sites with 2% bovine serum albumin. Quantification of t-PA binding was determined using a Horse-Radish Peroxidase linked sheep antimurine antibody in a colorimetric assay in the presence of O-phenylenediamine, 0.014% H2O2. Color change was measured spectrophotometrically with a Dynatech MR500 Card Reader (Dynatech, Chantilly, Va.) at 490 nm.
Binding of t-PA is reversible and specific, and saturates at 1500–3000 nM; at saturation, 18 ng of t-PA are bound per well ([…] moles t-PA per mole of fibrinogen) with an estimated KDin the range of 15–650 nM. Binding of t-PA and S—NO-t-PA was quantified by ELISA over the concentration range of 150–1500 nM using a mixture containing six murine monoclonal anti-t-PA antibodies.
(In general: An ELISA detects its analyte on a solid surface through an enzyme-linked reagent.)

Where two headings read alike, the source gives them in different places.

For the substance “S—NO-t-PA: derived from the nitrosylation of tissue-type plasminogen activator (t-PA)”, in assay [1], the “% Relaxation” value stood at 20 ± 7 %. Moreover, the “relaxations in presence of guanylate cyclase inhibitor methylene blue” value in assay [1] (methylene blue preincubated 15 minutes) is “attenuated”. The Kd in assay [2] (Scatchard analysis, read-out: estimated apparent DD for surface-bound fibrinogen) was 0.45 µM. The “binding isotherm compared with t-PA” value in assay [2] (two-way ANOVA) is listed as “not significantly different”.
For the substance “t-PA: tissue-type plasminogen activator, provided by Genentech”, the “% Relaxation” value in assay [1] is on record as 2.5 ± 4%. In addition, in assay [2] (at saturation), the “moles t-PA per mole of fibrinogen at saturation” value is listed as 0105 moles t-PA per mole of fibrinogen and the “t-PA bound per well at saturation” value was 18 ng. Also, in assay [2] (fibrinogen-coated wells), the “concentration at which binding saturates” value was 1500 to 3000 nM. Also, in assay [2] (fibrinogen-coated wells, read-out: estimated KD of binding to fibrinogen), the Kd was 0.015 to 0.65 µM.
